Measurements taken from US20210340265A1 (UNM RAINFOREST INNOVATIONS, published 2021).
Ends that are not written are not given here. * marks the point of attachment. Biotin = O=C1N[C@H]2[C@H](CS[C@H]2CCCCC(=O)*)N1

B1: CCKBR-scFv11-2 (scFv)
scFv: MAQVQLKQSGAELVRPGSSVKISCKASGYAFTNYLIEWVKQRPGQGLEWIGQIYPGDGDTNYNGKFKGKATLTVDNSSSTAYMELRSLTSEDSAVYYCARAATWYYAMDYWGQGTSVTVSSGGGGSGGGGSAIMSASPGEKVTITCSASSSVSYMHWFQQKPGTSPKLWIYSTSNLASGVPARFSGSGSGTSYSLTISSMEAEDAASYFCHQWSSYPWTFGGGTKLEIKRADAAALEHHHHHH
B2: CCK-BR-scFv14-3 (scFv)
chain: MAGAELVRSGASVKLSCTASGFNIKDYYIHWVKQRPEQGLEWIGWIDPENGDTEYAPKFQGKATMTADTSSNTAYLQLSSLTSEDTAVYYCNAGGRFAYWGQGTLVTVSAAKTTAPSGGGGSGGGGSGGGGGSGGGGSSSLSVSSGEKVTMSCKSSQSLLNSGNQKNYLAWYQQKPGQPPKLLIYWASTDESGVPDRFTGSGSGTDFTLTVSSVQAENLALYYCQNDHSYPYHVFDGGTKLEIKRADAAALE
B3: CCK-BR-scFv134-1 (scFv)
scFv: MAGAELVKPGASVKMSCKASGYTFTDYWMHWVKQRPGQGLEWIGAIDTSDSYTSYNQKFKGKATLTVDKSSSTAYIQLSSLTSEDSAVYYCARSEGYLPFDYWGQGTTLTVSSAKTTAPSGGGGSGGGGSGGGGGSGGGGSLSLPVSFGDQVSISCRSSQSLANSYGNTYLSWYLHKPGQSPQLLIYGISNRFSGVPDRFSGSGSGTDFTLKISTIKPEDLGMYYCLQGTHQPRTFGGGTKLEIKRADAAALEHHHHHH
B4: CCK-BR-scFv77-2 (scFv)
scFv: MAGAELVRSGASVKLSCTASGFNIKDYYIHWVKQRPEQGLEWIGWIDPENGDTEYAPKFQGKATMTADTSSNTAYLQLSSLTSEDTAVYYCNAGGRFAYWGQGTLVTVSAAKTTAPSGGGGSGGGGSGGGGGSGGGGSSSLSVSAGEKVTMSCKSSQSLLNSGNQKNYLAWYQQKPGQPPKLLIYGASTRESGVPDRFTGSGSGTDFTLTISSVQAEDLAVYYCQNDHSYPYTFGGGTKLEIKRADAAALEHHHHHH

Assays:
[1] = biological target: T1, 15-amino-acid extracellular CCK-B receptor peptide fragment CETPRIRGTGTRELE; assay: indirect ELISA on CCK-B receptor peptide
T1 construct: Custom peptide (GenScript) used for immunization and panning; also called CCK-B peptide
T1 peptide: Biotin-CETPRIRGTGTRELE

[2] = biological target: T2, CCK-B receptor (as coated in the indirect ELISA; form not stated); assay: ELISA
T2 chain: CETPRIRGTGTRELE

Row | Binder | binding result [1] | Kd [2] [nM]
1 | B1 | binds | –
2 | B2 | – | 349
3 | B3 | – | 366
4 | B4 | – | 195
